According to US20220411514A1, “ANTI-GAL3 ANTIBODIES AND METHODS OF USE FOR INSULIN RESISTANCE” (TrueBinding, Inc., priority 2021, published 2022):
Positions count from the first letter of the chain named.

B1: 849.5H1: anti-Gal3 antibody (antibody, V domains shown)
VH: QVQLKESGPVLVAPSQSLSITCTVSGFSLTSYGIHWVRQPPGKGLEWLGVIWAGGSTNYNSALMSRLSISKDNSKSQVFLKMNSLQIDDTAMYYCAKPPHDYDQAWFAYWGQGTLITVSA
VL: DIQMNQSPSSLSASLGDTITITCHASQNINVWLSWYQQKPGNIPKLLIYQASNLHTGVPSRFSGRGSGTGFTLTISSLQPEDIATYYCQQGQSSPFTFGSGTKLEIK
B2: 847.16D10: anti-Gal3 antibody (antibody, V domains shown)
VH: QVQLQQSGAELVRPGASVKLSCKASGYTFTGYWLNWVKQRPGQGLEWIGMIDPSDSETHYNQVFKDKATMTVDRSSSTAYMQLSGLTSEDSAVYYCANSNYASGSWGQGTTLTVSS
VL: QAVVTQESALTTSPGETVTLTCRSSTGAVTTSNYANWDQEKPDHLFTGLIGGTNNRAPGVPARFSGSLIGDKAALTITGAQTEDEAIYFCALWYSNHLVFGGGTKVTVL
B3: 846T.4C9: anti-Gal3 antibody (antibody, V domains shown)
VH: EVQLQQSGPELVKPGASVKMSCKASGYSFTNYIMHWVKQKPGQGLEWIGYINPYNDGTKYNEKFKGKATLTSDKSSSTAYMELSSLTSEDSAVYYCARLLFYYAMDYWGQGTSVTVSS
VL: DILMTQTPSSMSVSLGDTVSITCHASQGISSNIGWLQQKPRKSFKGLIYYGTNLEDGVPSRFSGSGSGADYSLTISSLESEDFADYYCVQYDQFPWTFGGGTKLEIK
B4: 847.15F9: anti-Gal3 antibody (antibody, V domains shown)
VH: QVQMKQSGPGLVQPSQSLSITCTVSGFSLINYGVHWVRQSPGKGLEWLGVIWSGGSTDYNAAFISRLSISKDNSKSQVFFKMNSLQADDTAIYYCARIYYYGRGYAMDYWGQGTSVTVSS
VL: QIVLSQSPAILSASPGEKVTMTCRASSSVTYMYWYQQKPGSSPQPWIYATSNLASGVPARFSGSGSGTSYSLTISRVEAEDAATYYCQQWSSNPLTFGAGTKLELK
B5: 847.21B11: anti-Gal3 antibody (antibody, V domains shown)
VH: QVQLKQSGPGLVAPSQSLSITCTVSGFSLTSYGVHWVRQPPGKGLEWLGIIWAGGSTNYNPALMSRLSISKDKSKSQVFLKMNSLKTDDTAMYYCARDRASLLRPGAMDYWGQGTSVTVSS
VL: DIVMTQSQKFMSTSVGDRVSVTCKASQNVGINVAWYQQKPGQSPKALIYSASYRYSGVPDRFTGSGSGTDFTLTISNVQSEDLAEYFCQQYNSYPYTFGGGTKLEMK
B6: 847.2B8: anti-Gal3 antibody (antibody, V domains shown)
VH: B4 VH with M4L
VL: B4 VL with V3L
B7: 847.4D3: anti-Gal3 antibody (antibody, V domains shown)
VH: EVQLVESGGGLVKPGGSLKLSCAASGFTFSSYAMSWVRQTPEKRLEWVASISSGDSPYYPDSVKGRFTISRDNARNILYLQMSSLRSEDTAMYYCTRFTTVVEMDYWGQGTSVTVSS
VL: DVVMTQTPKFLPITAEDRVTITCKASQSVSNEVAWYQQKPGQSPKLLIYYASNRYTGVPDRFTGSGSGTDFTFTIRSVQLEDLAVYFCQQHYSSPWTFGGGTKLEIK
B8: 849.4F12: anti-Gal3 antibody (antibody, V domains shown)
VH: QVQLKESGPGILQPSQTLSLTCSFSGFSLSTFGMGVGWIRQPSGKGLEWLAHIWWDDDKHYNPALKSRLTISKDTSKNQVFLRIANVDTADNATYYCARIDYGDYVGFAYWGQGTLVTVSA
VL: B3 VL with M4L, T7S, S30N, R41G, Y50H
B9: 847.11D6: anti-Gal3 antibody (antibody, V domains shown)
VH: EVKLQQSGPELMKPGTSMKISCKASGYSFTGYTMNWVKQSHGKNLEWIGLINPYNGGTNYNQKFRGKATLSVDKSSNTAYMELLSLTSEDSAVYYCARKDDYYGSSPYALDYWGQGTSVTVSS
VL: DIVMTQSPASLAVSLGQRATISCRASESVENHVNSFMHWFQQKPGQPPKLLIYRASNLQSGIPARFSGSGSRTDFTLTINPVEADDVATYYCQQNNEVPYTFGGGTKLEIK
B10: 2D10.2B2: anti-Gal3 antibody (antibody)
heavy: QVQLQQSGPELVKPGASVKISCKASGYTFTDYYINWVKQRPGQGLEWIGWIYPGSNDTKYNEKFKGKATLTVDTSSSTAYMQLGSLTSEDSAVYFCANYFGCSGWFFDVWGTGTTVTVSSAKTTPPSVYPLAPVCGDTTGSSVTLGCLVKGYFPEPVTLTWNSGSLSSGVHTFPAVLQSDLYTLSSSVTVTSSTWPSQSITCNVAHPASSTKVDKKIEPRGPTIKPCPPCKCPAPNAAGGPSVFIFPPKIKDVLMISLSPIVTCVVVDVSEDDPDVQISWFVNNVEVHTAQTQTHREDYNSTLRVVSALPIQHQDWMSGKEFKCKVNNKDLGAPIERTISKPKGSVRAPQVYVLPPPEEEMTKKQVTLTCMVTDFMPEDIYVEWTNNGKTELNYKNTEPVLDSDGSYFMYSKLRVEKKNWVERNSYSCSVVHEGLHNHHTTKSFSRTPGK
light: DIVMTQAAFSNPVTLGTSASISCRSSKSLLHSDGITYLYWYLQRPGQSPQLLIYRMSNLASGVPDRFSGSGSGTDFTLRISRVEAEDVGVYYCAQMIEFPLTFGAGTILELKRADVAPTVSIFPPSSEQLTSGGASVVCFLNNFYPKDINVKWKIDGSERQNGVLNSWTDQDSKDSTYSMSSTLTLTKDEYERHNSYTCEATHKTSTSPIVKSFNRNEC
modifications: 2D10.2B2 heavy chain peptide sequence; 2D10.2B2 light chain peptide sequence
notes: anti-Gal3 antibody

Target: T1, human Gal3 (Homo sapiens, UniProt P17931)
T1 construct: 6xHis (linker-spaced) (C); purchased AcroBio (Acro Biosystems) GA3-H5129
Experiment: Epitope binning, sandwich format, SPR Carterra LSA (Example 8)
Type: binding
Conditions: not given
Procedure: The epitope binning assay was done in a sandwich format on the high-throughput SPR-based Carterra LSA unit (CarterraBio, Salt Lake City, Utah). First, the purified antibodies were diluted to 10 μg/ml concentration in 10 mM NaOAc (pH 5.0) and then were covalently coupled via amine group to HC200M chip activated by EDC and S-NHS to immobilize antibodies to different positions of a 384-spot array. One hundred thirty-eight binning cycles were run on the array of immobilized antibodies. In each cycle, first, human Gal3 (AcroBio GA3-H5129) was injected over the entire array to bind to different antibodies (primary antibody), followed by one antibody (secondary antibody) selected among the panel of 150 anti-GAL3 antibodies tested. At the end of each cycle, the array was regenerated by 10 mM Glycine (pH 2.0) to remove bound antigen and secondary antibody from the array. The data analysis was done using the Epitope software by CarterraBio.

T1 sequence (P17931 whole entry): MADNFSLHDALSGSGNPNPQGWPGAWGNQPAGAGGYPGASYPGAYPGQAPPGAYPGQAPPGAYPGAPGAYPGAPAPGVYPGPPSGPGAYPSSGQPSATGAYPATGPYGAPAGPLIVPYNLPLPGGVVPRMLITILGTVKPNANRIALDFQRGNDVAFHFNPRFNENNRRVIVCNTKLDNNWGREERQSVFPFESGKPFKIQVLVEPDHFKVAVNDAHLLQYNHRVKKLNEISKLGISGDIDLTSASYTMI

| Molecule | epitope bin (mutual competitive binding for Gal3) | binding to hGAL3 when immobilized on HC200M chip |
| --- | --- | --- |
| B1 | 21 | – |
| B2 | CRD | – |
| B3 | – | not bind |
| B4 | – | not bind |
| B5 | – | not bind |
| B6 | – | not bind |
| B7 | – | not bind |
| B8 | – | not bind |
| B9 | CRD | – |

Target: T2, Human Gal3 peptides (Homo sapiens, UniProt P17931)
T2 construct: purchased LifeTein custom order
Experiment: Gal3 peptide binding ELISA (Example 8)
Conditions: antibody 5 μg/mL
Procedure: (§1) Gal3 peptide binding activity of additional exemplary anti-Gal3 antibodies was assessed with the same peptides as described in FIG. 18 (SEQ ID NOs: 3-26). Human Gal3 peptides (LifeTein, custom order) and human Gal3 proteins (R&D Systems, 8259-GA; TrueBinding, QCB200349) were diluted in PBS (Corning, 21-030-CM) to concentrations of at least 100 μg/mL (peptides) or 1 μg/mL (proteins), and added to the wells of several 96-well ELISA plates (Thermo Fisher, 44-2404-21). After incubating the plates at 4° C. overnight, the plates were washed three times with PBST (PBS with 0.05% Tween 20 [VWR, 0777]). The plates were then blocked for an hour with 2% BSA (EMD Millipore, 126609) in PBST at room temperature with gentle rocking. Thereafter, the 2% BSA in PBST was discarded and Gal3-binding antibodies (reformatted hIgG4 [S228P]) were diluted in 2% BSA in PBST to concentrations of 5 μg/mL and added to the wells. The plates were incubated for an hour at room temperature with gentle rocking and then washed three times with PBST. Afterwards, Peroxidase AffiniPure F(ab′)2 Fragment Goat Anti-Human IgG (H+L) polyclonal antibody (Jackson ImmunoResearch, 109-036-003), was diluted in 2% BSA in PBST (1:4000) and added to the wells. The plates were incubated for 1 hour at room temperature with gentle rocking and then washed three times with PBST. TMB substrate (Thermo Scientific, 34029) was then added to each well. The reaction was stopped with 1M HCl (JT Baker, 5620-02) and read using a plate reader (Molecular Devices) at absorbance of 450 nm.

T2 sequence (P17931 52-71): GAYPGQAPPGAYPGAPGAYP

| Molecule | binding to Gal3 peptide 6 (SEQ ID NO: 8) |
| --- | --- |
| B10 | bound |

Test system: Human Gal3 peptides
Experiment: Gal3 peptide binding ELISA (Example 8)
Conditions: antibody 5 μg/mL
Procedure: as §1

| Molecule | binding to any of the tested Gal3 peptides |
| --- | --- |
| B1 | not found to bind |
| B2 | not found to bind |
| B3 | not found to bind |
| B4 | not found to bind |
| B5 | not found to bind |
| B6 | not found to bind |
| B7 | not found to bind |
| B8 | not found to bind |
| B9 | not found to bind |

Target: T3, hGal3 peptide (Homo sapiens, UniProt P17931)
T3 construct: a library of 24 amino acid peptides representing portions of Gal3
Experiment: Gal3 peptide library binding ELISA (Example 2)
Conditions: not given
Procedure: To identify the epitopes to which Gal3 antibodies with and without Gal3-INSR blocking activity bound, a library of 24 amino acid peptides representing portions of Gal3, depicted in FIG. 18, was produced and the ability of each peptide to bind Gal3 antibodies was evaluated by ELISA. At least 2 μg/ml of hGal3 peptide in 50 μl of PBS or 0.1 μg/ml of full-length human Gal3 protein (GenScript) and human Galectin-3 protein (Acro Biosystems, GA3-H5129) were diluted in PBS (Corning, 21-030-CM) to concentrations of at least 2 μg/ml or 0.1 μg/ml, respectively, and added to the wells of a 96-well ELISA plate (Thermo Fisher, 44-2404-21). After incubating the plate at 4° C. overnight, the plate was washed three times with PBST (PBS with 0.05% Tween 20 [VWR, 0777]). The plate was then blocked for an hour with 2% BSA (EMD Millipore, 126609) in PBST at room temperature with gentle rocking. Thereafter, the 2% BSA in PBST was discarded and human Galectin-3 hybridoma supernatants or antibodies were diluted in 2% BSA in PBST to concentrations of at least 0.1 μg/ml and added to the wells. The plate was incubated for an hour at room temperature with gentle rocking and then washed three times with PBST. Afterwards, Goat Anti-Mouse IgG-HRP (Jackson ImmunoResearch, 115-036-1461) or Goat Anti-Rat IgG HRP (Abcam, ab205720) diluted in 2% BSA in PBST (1:4000) were added to the wells. The plate was incubated for 30 minutes to 1 hour at room temperature with gentle rocking and then washed three times with PBST. TMB substrate (Thermo Scientific, 34029) was then added to each well. The reaction was stopped with 1M HCl (JT Baker, 5620-02) and read using a plate reader (Molecular Devices) at absorbance of 450 nm.

| Molecule | binding to Gal3 peptide 6 (amino acids 51-70, SEQ ID NO: 8) |
| --- | --- |
| B10 | bound |
